Data reported in US20250333486A1 (NATIONAL HEALTH RESEARCH INSTITUTES, published 2025).
Numbering of substitutions follows the chain as printed. Names and notes keep the numbering of the source. Blank lines part the entries; values can stand above or below the binder they belong to.

How the values were obtained:
[1] = target: T1, CD91, cell-surface receptor of eHSP90α, on PANC-1 cells (UniProt Q07954 20-4544, limits assumed); assay: proximity ligation assay (PLA) in PANC-1 cells, 15 µg/ml rHSP90α, with or without 10 µg/ml control IgG, Clone-2 or Clone-6 [d]
T1 construct: whole, on cells; Endogenous receptor on human PANC-1 cells, detected by proximity ligation assay; also called CD91/LRP-1
T1 sequence (Q07954 20-4544 limits assumed): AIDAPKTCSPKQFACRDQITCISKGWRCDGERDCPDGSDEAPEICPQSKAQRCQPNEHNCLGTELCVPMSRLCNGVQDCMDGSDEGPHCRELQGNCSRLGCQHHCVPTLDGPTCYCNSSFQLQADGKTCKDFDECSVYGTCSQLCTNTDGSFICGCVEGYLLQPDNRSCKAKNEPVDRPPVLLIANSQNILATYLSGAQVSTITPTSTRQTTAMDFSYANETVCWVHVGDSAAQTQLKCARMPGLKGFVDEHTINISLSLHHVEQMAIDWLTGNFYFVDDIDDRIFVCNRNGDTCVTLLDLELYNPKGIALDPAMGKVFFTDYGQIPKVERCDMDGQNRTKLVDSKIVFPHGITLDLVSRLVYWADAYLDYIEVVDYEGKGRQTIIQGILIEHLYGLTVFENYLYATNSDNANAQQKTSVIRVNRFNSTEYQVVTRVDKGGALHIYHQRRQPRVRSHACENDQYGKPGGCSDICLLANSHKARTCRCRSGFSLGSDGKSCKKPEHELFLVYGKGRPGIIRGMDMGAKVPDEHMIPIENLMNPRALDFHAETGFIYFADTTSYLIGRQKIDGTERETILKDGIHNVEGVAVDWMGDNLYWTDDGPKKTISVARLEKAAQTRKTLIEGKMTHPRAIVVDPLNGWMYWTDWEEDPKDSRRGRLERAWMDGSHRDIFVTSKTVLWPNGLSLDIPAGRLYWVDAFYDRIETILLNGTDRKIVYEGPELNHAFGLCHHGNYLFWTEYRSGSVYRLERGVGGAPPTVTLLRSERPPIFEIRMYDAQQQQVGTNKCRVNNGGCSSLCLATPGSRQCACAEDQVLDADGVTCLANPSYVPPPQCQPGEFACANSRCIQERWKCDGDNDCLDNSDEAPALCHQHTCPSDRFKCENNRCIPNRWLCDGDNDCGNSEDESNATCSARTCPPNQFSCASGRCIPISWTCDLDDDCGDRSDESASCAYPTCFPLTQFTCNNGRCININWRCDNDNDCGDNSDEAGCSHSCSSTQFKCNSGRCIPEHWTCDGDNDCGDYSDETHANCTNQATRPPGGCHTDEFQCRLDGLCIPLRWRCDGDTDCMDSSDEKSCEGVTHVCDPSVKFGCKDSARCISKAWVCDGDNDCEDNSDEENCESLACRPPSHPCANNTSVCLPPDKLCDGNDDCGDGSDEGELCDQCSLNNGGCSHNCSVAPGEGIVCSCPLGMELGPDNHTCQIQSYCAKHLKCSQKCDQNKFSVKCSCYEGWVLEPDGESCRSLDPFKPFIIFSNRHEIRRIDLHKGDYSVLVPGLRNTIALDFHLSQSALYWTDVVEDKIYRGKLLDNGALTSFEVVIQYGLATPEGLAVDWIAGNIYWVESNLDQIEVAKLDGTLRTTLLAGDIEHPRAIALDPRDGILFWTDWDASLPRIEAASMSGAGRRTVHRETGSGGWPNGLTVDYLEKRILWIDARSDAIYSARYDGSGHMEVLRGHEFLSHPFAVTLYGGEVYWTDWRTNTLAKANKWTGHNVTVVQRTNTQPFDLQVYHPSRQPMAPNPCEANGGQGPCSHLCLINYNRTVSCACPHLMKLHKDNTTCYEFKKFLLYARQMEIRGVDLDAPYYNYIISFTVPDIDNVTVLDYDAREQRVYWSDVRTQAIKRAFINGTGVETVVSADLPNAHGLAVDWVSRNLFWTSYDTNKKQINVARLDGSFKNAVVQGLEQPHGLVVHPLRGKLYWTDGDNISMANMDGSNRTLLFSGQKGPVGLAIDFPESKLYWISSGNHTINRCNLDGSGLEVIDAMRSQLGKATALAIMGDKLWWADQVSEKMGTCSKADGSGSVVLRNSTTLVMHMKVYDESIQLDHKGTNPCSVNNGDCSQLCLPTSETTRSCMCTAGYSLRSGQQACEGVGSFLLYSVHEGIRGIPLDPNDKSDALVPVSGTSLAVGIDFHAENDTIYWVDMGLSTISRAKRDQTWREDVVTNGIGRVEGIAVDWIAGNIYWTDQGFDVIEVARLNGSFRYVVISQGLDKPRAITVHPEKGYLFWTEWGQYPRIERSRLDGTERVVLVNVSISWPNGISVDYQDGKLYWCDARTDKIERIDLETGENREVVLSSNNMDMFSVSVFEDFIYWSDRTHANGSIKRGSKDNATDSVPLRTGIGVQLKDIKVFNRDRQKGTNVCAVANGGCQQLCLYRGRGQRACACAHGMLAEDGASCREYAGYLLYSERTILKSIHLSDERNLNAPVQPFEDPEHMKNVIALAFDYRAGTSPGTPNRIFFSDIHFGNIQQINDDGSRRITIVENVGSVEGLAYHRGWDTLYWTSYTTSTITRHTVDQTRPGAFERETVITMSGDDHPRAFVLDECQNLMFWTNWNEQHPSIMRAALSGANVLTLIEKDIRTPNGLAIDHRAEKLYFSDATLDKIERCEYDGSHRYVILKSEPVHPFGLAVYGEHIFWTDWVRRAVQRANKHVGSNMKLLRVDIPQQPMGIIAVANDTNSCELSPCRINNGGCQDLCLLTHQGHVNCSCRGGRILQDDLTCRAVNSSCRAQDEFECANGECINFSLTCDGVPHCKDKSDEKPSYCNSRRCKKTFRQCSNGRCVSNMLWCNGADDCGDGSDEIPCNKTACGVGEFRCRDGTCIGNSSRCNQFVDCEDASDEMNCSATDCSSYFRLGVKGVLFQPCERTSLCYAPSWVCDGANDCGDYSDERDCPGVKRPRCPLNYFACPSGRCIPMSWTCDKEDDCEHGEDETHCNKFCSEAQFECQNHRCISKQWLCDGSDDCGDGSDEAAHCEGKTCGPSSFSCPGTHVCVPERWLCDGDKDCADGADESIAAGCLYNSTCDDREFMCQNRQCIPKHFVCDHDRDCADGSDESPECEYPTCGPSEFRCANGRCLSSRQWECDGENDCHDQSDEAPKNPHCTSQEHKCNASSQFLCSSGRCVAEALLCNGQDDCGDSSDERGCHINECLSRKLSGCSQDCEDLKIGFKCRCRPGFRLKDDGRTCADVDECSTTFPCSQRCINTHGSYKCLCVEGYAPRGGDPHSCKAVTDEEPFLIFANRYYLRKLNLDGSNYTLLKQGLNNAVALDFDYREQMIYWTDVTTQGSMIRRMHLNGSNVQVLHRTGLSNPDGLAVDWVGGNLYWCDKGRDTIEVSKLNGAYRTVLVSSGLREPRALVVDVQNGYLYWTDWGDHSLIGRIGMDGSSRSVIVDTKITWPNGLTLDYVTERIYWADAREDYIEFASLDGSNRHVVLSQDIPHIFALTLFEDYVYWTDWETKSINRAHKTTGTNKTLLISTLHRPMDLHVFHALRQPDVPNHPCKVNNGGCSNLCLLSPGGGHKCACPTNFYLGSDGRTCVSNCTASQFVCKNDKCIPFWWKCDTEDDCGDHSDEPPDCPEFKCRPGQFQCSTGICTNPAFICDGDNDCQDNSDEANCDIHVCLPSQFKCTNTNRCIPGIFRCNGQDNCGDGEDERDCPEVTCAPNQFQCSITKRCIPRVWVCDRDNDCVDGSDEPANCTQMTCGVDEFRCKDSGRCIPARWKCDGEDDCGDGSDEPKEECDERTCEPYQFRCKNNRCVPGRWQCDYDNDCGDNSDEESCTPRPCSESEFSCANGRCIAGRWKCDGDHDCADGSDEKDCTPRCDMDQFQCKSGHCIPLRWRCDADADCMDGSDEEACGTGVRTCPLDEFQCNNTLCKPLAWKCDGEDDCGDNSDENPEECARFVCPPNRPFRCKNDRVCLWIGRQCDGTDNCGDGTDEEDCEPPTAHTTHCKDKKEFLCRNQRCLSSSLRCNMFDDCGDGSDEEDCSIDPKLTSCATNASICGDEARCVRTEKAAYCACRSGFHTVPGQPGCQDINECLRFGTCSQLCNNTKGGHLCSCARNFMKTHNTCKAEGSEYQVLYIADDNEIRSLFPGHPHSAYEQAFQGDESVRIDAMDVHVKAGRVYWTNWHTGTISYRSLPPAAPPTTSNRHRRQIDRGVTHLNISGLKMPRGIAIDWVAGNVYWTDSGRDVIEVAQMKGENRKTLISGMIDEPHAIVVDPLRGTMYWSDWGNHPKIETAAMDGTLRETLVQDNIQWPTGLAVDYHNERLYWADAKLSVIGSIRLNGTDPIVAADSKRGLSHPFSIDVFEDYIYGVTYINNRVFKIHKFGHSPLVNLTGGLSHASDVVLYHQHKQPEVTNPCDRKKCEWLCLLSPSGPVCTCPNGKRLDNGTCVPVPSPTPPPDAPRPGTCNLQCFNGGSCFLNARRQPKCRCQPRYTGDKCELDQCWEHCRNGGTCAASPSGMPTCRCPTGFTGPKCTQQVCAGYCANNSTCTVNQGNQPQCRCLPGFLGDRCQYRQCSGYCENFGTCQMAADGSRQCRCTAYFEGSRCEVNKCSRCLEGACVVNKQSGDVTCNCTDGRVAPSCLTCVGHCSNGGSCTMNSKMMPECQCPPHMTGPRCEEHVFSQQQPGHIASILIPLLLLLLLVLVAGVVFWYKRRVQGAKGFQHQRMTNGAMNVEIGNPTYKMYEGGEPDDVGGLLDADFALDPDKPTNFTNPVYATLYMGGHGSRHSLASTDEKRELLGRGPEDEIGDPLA
Procedure: PANC-1 cells seeded onto glass coverslips at a density of 2×10⁵ cells per 22×22-mm coverslip were incubated 16 h with 0.5% serum-containing medium at 37° C. plus a 5% CO₂ humidified atmosphere. The cells were then added with PBS or 15 μg/ml of rHSP90α in the absence or presence of 10 μg/ml of control IgG or the tested anti-HSP90α antibody for another 24-h incubation. The treated cells were then fixed with 3% paraformaldehyde and blocked with the blocking solution provided in the Duolink in situ PLA kit (Olink Bioscience, Uppsala, Sweden). Furthermore, the cell samples were incubated overnight at 4° C. with anti-CD91 antibody (1:80, cat. #550495, BD Biosciences, San Jose, CA, USA) mixed with anti-HSP90α antibody (1:80, cat. #AHP-1339, AbD Serotec, Raleigh, NC, USA) or anti-IKKα antibody (1:80, cat. #3285, Epitomics Co., Burlingame, CA, USA). After washed trice with Tris-buffered saline plus 0.05% Tween 20, the cell samples were incubated with PLA probes for the subsequent ligation and amplification procedure according to the manufacturer's instructions for the Duolink in situ PLA kit. Finally, nuclei were counterstained with 4′,6′-diamidino-2-phenylindole (DAPI; Sigma-Aldrich). Images were photographed and analyzed using Leica TCS SP5 II confocal microscope and LAS AF Lite 4.0 software (Leica, Wetzlar, Germany).

[2] = target: T2, recombinant 732-amino acid full-length human HSP90α (rHSP90α; PeproTech) (human, UniProt P07900 1-732, limits assumed); assay: SPR, Biacore T200; antibody captured on Protein A chip, rHSP90α 1.5625-100 nM as analyte; 1:1 model
T2 construct: Bought protein used as immunogen, ELISA coat (12.5 ng/ml), Biacore analyte and cell stimulus; also called recombinant human HSP90α; eHSP90α
Procedure: (§1) To measure the HSP90α-binding characteristics of anti-HSP90α antibodies, binding kinetic assays were performed using Biacore T200 (Cytiva Co., Marlborough, MA, USA). The interested anti-HSP90α antibodies were applied onto Protein A Series S sensor chips as ligands to achieve approximately 3000˜5000 response units. A series of concentrations of rHSP90α (1.5625-100 nM) in HBS-EP+ buffer were injected over the chip surface. The association was monitored for 60 sec, and the final dissociation time was 1500 sec.

[3] = target: T2, recombinant 732-amino acid full-length …; assay: SPR, Biacore T200, fitted to a 1:1 interaction model [b]
Procedure: as §1

[4] = target: T3, EDVGSDEEEE; assay: peptide-scanning ELISA on plates coated with 10-a.a. peptides [b]
T3 construct: HSP90α a.a
T3 peptide: EDVGSDEEEE
Excerpt: (§2) At first, the domain scanning strategy was used to roughly delineate the HSP90α region responsible for the binding with our prepared antibodies. The above-mentioned full-length HSP90α and its 3 truncated fragments were employed to coat 96-well ELISA plates for assaying the binding activities of the tested mouse monoclonal antibodies. […] Therefore, in peptide scanning strategy, a 132 peptide library was synthesized by Mimotopes Pty. Ltd. (Melbourne, Victoria, Australia), consisting of a series of 10-a.a. peptides offset by 2 a.a. to span the sequence of the a.a. […] This series of peptides were used to coat 96-well ELISA plates for assaying the binding activities of the tested antibodies. […] These peptides were subjected to ELISA as described above.

[5] = target: T4, VGSDEEEEKK; assay: as above
T4 construct: HSP90α a.a
T4 peptide: VGSDEEEEKK
Excerpt: as §2

[6] = target: T5, KPEIEDVGSD; assay: as above
T5 construct: HSP90α a.a
T5 peptide: KPEIEDVGSD
Excerpt: as §2

[7] = target: T6, EIEDVGSDEE; assay: as above
T6 construct: HSP90α a.a
T6 peptide: EIEDVGSDEE
Excerpt: as §2

[8] = target: T7, EDKEEEKEKE; assay: as above
T7 construct: HSP90α a.a
T7 peptide: EDKEEEKEKE
Excerpt: as §2

[9] = target: T8, DKEVSDDEAE; assay: as above
T8 construct: HSP90α a.a
T8 peptide: DKEVSDDEAE
Excerpt: as §2

[10] = target: T9, SDEEEEKKDG; assay: peptide-scanning ELISA on plates coated with 10-a.a. peptides [c]
T9 construct: HSP90α a.a
T9 peptide: SDEEEEKKDG
Excerpt: as §2

[11] = target: T10, KEKEEKESED; assay: as above
T10 construct: HSP90α a.a
T10 peptide: KEKEEKESED
Excerpt: as §2

[12] = target: T11, EVSDDEAEEK; assay: as above
T11 construct: HSP90α a.a
T11 peptide: EVSDDEAEEK
Excerpt: as §2

[13] = target: T12, a.a. 630~732; assay: domain-scanning ELISA on plates coated with full-length or truncated His-tagged HSP90α [a]
T12 construct: not shown: left out of the chain
T12 sequence (chain, as listed by the source limits assumed): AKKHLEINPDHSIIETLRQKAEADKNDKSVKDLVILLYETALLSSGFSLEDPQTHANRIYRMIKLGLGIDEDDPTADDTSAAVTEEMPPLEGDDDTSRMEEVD
Excerpt: as §2
As listed in the above Table 3, HH01 antibody is capable of binding specifically to the human HSP90α with novel amino acid (a.a.) sequences in the complementarity determining regions (CDRs), and therefore we intended to identify which region of HSP90α was bound by HH01 antibody. In a preliminary study, we employed the strategy of HSP90α domain scanning to delineate the HSP90α region responsible for the binding with Clone-2 antibody. […] Subsequently, the binding activities of Clone-2 antibody to the full-length and truncated HSP90α were assayed by a conventional ELISA method.

B2: Clone-2-chimera anti-HSP90α antibody (antibody, V domains shown)
VH: EVQVVESGGGLVQPKGSLKLSCAASGFTFKTYAMNWVRQAPGKGLEWVARIRSKSRNYATYYADSVKDRFTISRDDSQFMFYLQMNNLKTEDTAMYYCVVGGSGFDYWGQGTTLTVSS
VL: DVLMTQTPLSLPVSLGDQASISCRSSQSIVHSNGNTYLEWYLQKPGQSPKLLIYKVSNRFSGVPDRFSGSGSGTDFTLSISRVEAGDLGVYYCFQGSHVPWTFGGGTKLEIK
notes: Clone-2 VH and VL joined to human IgG1 constant region (pFUSEss-CHIg-hG1e1; Fc with mutations at Q250T, E356D, M358L, L428M) and human κ constant region (pFUSE2ss-CLIg-hk); expressed in ExpiCHO cells
- Kd [2]: 94 pM
- koff [3]: 6.7e-05 s⁻¹
- kon [3]: 711000 M⁻¹ s⁻¹
- binding result [4]: no binding
- binding result [5]: no binding
- binding result [6]: no binding
- binding result [7]: no binding
- binding result [8]: no binding
- binding result [9]: no binding

B3: HH01 anti-HSP90α antibody (Clone-2-hA) (antibody, V domains shown)
VH: B2 VH with V4L, K15G, K19R, K43Q, Q78K, F79N, M80Q, K89R, M95V
VL: B2 VL with L3V, K50Q, S79T, R82S, G86E
notes: expressed in ExpiCHO cells; also called HH01 antibody
- Kd [2]: 187 pM
- binding result [10]: no binding
- binding result [11]: no binding
- binding result [12]: no binding
- koff [3]: 0.000137 s⁻¹
- kon [3]: 729000 M⁻¹ s⁻¹

The next lines start with the values.

- binding result [1]: binds
B1: IKKα (enzyme, human, UniProt O15111 1-745, looked up)
single chain: MERPPGLRPGAGGPWEMRERLGTGGFGNVCLYQHRELDLKIAIKSCRLELSTKNRERWCHEIQIMKKLNHANVVKACDVPEELNILIHDVPLLAMEYCSGGDLRKLLNKPENCCGLKESQILSLLSDIGSGIRYLHENKIIHRDLKPENIVLQDVGGKIIHKIIDLGYAKDVDQGSLCTSFVGTLQYLAPELFENKPYTATVDYWSFGTMVFECIAGYRPFLHHLQPFTWHEKIKKKDPKCIFACEEMSGEVRFSSHLPQPNSLCSLVVEPMENWLQLMLNWDPQQRGGPVDLTLKQPRCFVLMDHILNLKIVHILNMTSAKIISFLLPPDESLHSLQSRIERETGINTGSQELLSETGISLDPRKPASQCVLDGVRGCDSYMVYLFDKSKTVYEGPFASRSLSDCVNYIVQDSKIQLPIIQLRKVWAEAVHYVSGLKEDYSRLFQGQRAAMLSLLRYNANLTKMKNTLISASQQLKAKLEFFHKSIQLDLERYSEQMTYGISSEKMLKAWKEMEEKAIHYAEVGVIGYLEDQIMSLHAEIMELQKSPYGRRQGDLMESLEQRAIDLYKQLKHRPSDHSYSDSTEMVKIIVHTVQSQDRVLKELFGHLSKLLGCKQKIIDLLPKVEVALSNIKEADNTVMFMQGKRQKEIWHLLKIACTQSSARSLVGSSLEGAVTPQTSAWLPPTSAEHDHSLSCVVTPQDGETSAQMIEENLNCLGHLSTIIHEANEEQGNSMMNLDWSWLTE
notes: endogenous, in cells; partner of CD91 in the proximity ligation assay

- binding result [13]: no binding
B4: Clone-2 anti-HSP90α antibody (mouse monoclonal) (antibody, V domains shown)
VH: B2 VH
VL: B2 VL
notes: Mouse hybridoma antibody, IgG2b isotype with κ light chains; First tested as culture supernatant, then purified; also called Clone-2 antibody; parental Clone-2
